The nature of the series: soluble on expression in E. coli; label from the status in PepcDB or PDB records.
In the case of “MSLFPSSEVEAKRTTLNLELESNTDRLLQEKDDLLPQSVTNSSDEGTPFAQVEGASDDNTAEQDSDKPGASVADADTKPVDPEWKTITVASGDTLSTVFTKAGLSTSAMHDMLTSSKDAKRFTHLKVGQEVKLKLDPKGELQALRVKQSELETIGLDKTDKGYSFKREKAQIDLHTAYAHGRITSSLFVAGRNAGLPYNLVTSLSNIFGYDIDFALDLREGDEFDVIYEQHKVNGKQVATGNILAARFVNRGKTYTAVRYTNKQGNTSYYRADGSSMRKAFIRTPVDFARISSRFSLGRRHPILNKIRAHKGVDYAAPIGTPIKATGDGKILEAGRKGGYGNAVVIQHGQRYRTIYGHMSRFAKGIRAGTSVKQGQIIGYVGMTGLATGPHLHYEFQINGRHVDPLSAKLPMADPLGGADRKRFMAQTQPMIARMDQEKKTLLALNKQREGHHHHHH”, the “soluble on expression in E. coli” value was “soluble”. For “MINNSFWQGKRVFVTGHTGFKGGWLSLWLQTMGATVKGYSLTAPTVPSLFETARVADGMQSEIGDIRDQNKLLESIREFQPEIVFHMAAQPLVRLSYSEPVETYSTNVMGTVYLLEAIRHVGGVKAVVNITSDKCYDNKEWIWGYRENEAMGGYDPYSNSKGCAELVTSSYRNSFFNPANYGQHGTAVATVRAGNVIGGGDWALDRIVPDILRAFEQSQPVIIRNPHAIRPWQHVLEPLSGYLLLAQKLYTDGAEYAEGWNFGPNDADATPVKNIVEQMVKYWGEGASWQLDGNAHPHEAHYLKLDCSKAKMQLGWHPRWNLNTTLEYIVGWHKNWLSGTDMHEYSITEINNYMNTK” the value was “soluble”; for “MPVNATGVSFSSFGISYHKDNSFRGTIRGKNDEVVKCSMGERSIRFNVNKFSGCILETVSRQSTKDIHGWVSDERTVYPSRVINQEIDNCCLQKNAKISSEERKMVFSLVSKEFELTLDVKAAQSSINHIIIGNASFGKKMDALCDGMSRAVKNSTTDYIANVLADKFYQKHIAPGVDIVKLRNEIPGYMSRVIQG”, “not soluble”; for “GQSLPSVSKEIRELSNRTEQQTSLSDRKESEAFALETVRMISDRTLYLFRLAEGRSWEADVRGRSWASRVLPIVHRLKHGGIPWKQYLSSDSLCMEARLYGKYDSVTGAYRRGVVSFRSDIPQRNKVDDLTALALLGENVYAEEFDFGNRQIFPNPIRREAEAFYTYRLDSLYEKDGITYRRIAFRGLSGLNHGTVTIDATHGQLAILEMRVMMKGVITESYRVELGEVEPGLFLPIGLSVVIDRNRLWASLHNGYSASISYPGEQLDKTVLPVYTPTDSSRYRLPDELPVAPVWAVRSSFGREDSSTYWKNVVVGRDHTLHQHVPWHRALAWGHKYRIGERWRLGNEGLVWALFYYNYADHLWLGQSLTAIYDMAPGIRWEIKPGLYYVTKRRKAVWTLDSKLYYSPPQRGLLQLSAGHRSFDLYSTRERIDQLTDLMMELLNGQGPTTRYDDKFVRLTNSIDLLPKLNVETSVMLAERNPLPHGET”, “not soluble”. With “MGSDKIHHHHHHMETVQYDYKQILQRIVAEIKSSRIQVARKITSATMELYWNIGKELSAQHLSKGYGAQVVEMLASDLQKEFPGTTGFSSRNLWEMKRFYERYCGESRKLQQSVAVLPWGHNLLLMSKCKNPEEIYFYATRSTELGWTRDVLLNYIKADAFSTREEQPKLHNFKETLPECLQEQAEEMLKSRYNLEFLGITKPILELELERRLVDKIKTFLLEMGKGFSFIGNQYRLVLEDKEYFVDMLFFNRCTRSLIALELKIGSFQPEYVGKMNFYLNLLDRQVKMPDENPSIGIILCADRNNVEVEVALQGSTAPIGVSEYSYLIPQKQIKELINNELSGNKE” the entry was “not soluble”. With “MMQRRAVFGLFLLPLARGQGTCAPTPALTQGPYYLRDVPQREDLREGLPGVPLRLLLRVRDRACRPLQGARVDLWHTDALGRYSGVNAPGTFCRGWQATDERGEVAFLTLFPGWYPSRTPHLHLRVEAGGRVFATQLFFPEEVQRQVYALPPYRERGMPRVNNRQDGLFRADLLLRLEREGEAYRGAFVLTLPG”, the “soluble on expression in E. coli” value was “soluble”. With “ASLFPPGLHAIYGECRRLYPDQPNPLQVTAIVKYWLGGPDPLDYVSMYRNVGSPSANIPEHWHYISFGLSDLYGDNRVHEFTGTDGPSGFGFELTFRLKRETGESAPPTWPAELMQGLARYVFQSENTFCSGDHVSWHSPLDNSESRIQHMLLTEDPQMQPVQTPFGVVTFLQIVGVCTEELHSAQQWNGQGILELLRTVPIAGGPWLITDMRRGETIFEIDPHLQERVDKGIETD” the entry was “soluble”. For “MGHHHHHHHHHHSSGHIDDDDKHMRGREEKAPEEPQPVKMPENNSVVEATWNDVQLEDSLGMEVGYRLIPMVDFQQDGELLGRIRSIRKKFAQDMGFLPPVVHIRDNMDLQPARYRILMKGVEIGSGDAYPGRWLAINPGTAAGTLPGEKTVDPAFGLDAIWIESALKEQAQIQGFTVVEASTVVATHLNHLIGQFSAELFGRQEAQQLLDRVSQEMPKLTEDLVPGVVTLTTLHKVLQNLLAEKVPIRDMRTILETLAEHAPLQSDPHELTAVVRVALGRAITQQWFPGNEEVQVIGLDTALERLLLQALQGGGGLEPGLADRLLAQTQEALSRQEMLGAPPVLLVNHALRPLLSRFLRRSLPQLVVLSNLELSDNRHIRMTATIGGK” the value was “soluble”; for “MDICSRNKKLTIRRPAILVALALLLCSCKSTPPESMVTPPAGSKPPATTQQSSQPMRGIWLATVSRLDWPPVSSVNISNPTSRARVQQQAMIDKLDHLQRLGINTVFFQVKPDGTALWPSKILPWSDLMTGKIGENPGYDPLQFMLDEAHKRGMKVHAWFNPYRVSVNTKPGTIRELNSTLSQQPASVYVQHRDWIRTSGDRFVLDPGIPEVQDWITSIVAEVVSRYPVDGVQFDDYFYTESPGSRLNDNETYRKYGGAFASKADWRRNNTQQLIAKVSHTIKSIKPGVEFGVSPAGVWRNRSHDPLGSDTRGAAAYDESYADTRRWVEQGLLDYIAPQIYWPFSRSAARYDVLAKWWADVVKPTRTRLYIGIAFYKVGEPSKIEPDWMINGGVPELKKQLDLNDAVPEISGTILFREDYLNKPQTQQAVSYLQSRWGS”, “soluble”; for “MSWQLALYNGLWRALTPLVRRYLKKRARKAPAYLEHWDERFGQALSPSATGAIWIHAVSVGETRAAQPLVAAIRREWPDAPLLLTQMTPTGRATAEQLYPDAEVRYLPYDYPQAAADFLRAYRPRCGVLMETEIWPNLIHAAAAQRIPLLLANARLSEKSLNGYRKIAGLISPAIAKLTAVAAQTAEDADRLRQLGARSVSVCGSSKYDIEVPEAQRHLAADFRAMAGGRRALLCASTRDGEEALILDAWLAAGAAVGDTLLVLVPRHPERWDEVEKLAAERGLKSQRRSGGAAIAADTRVWLGDSMGEMFGYLGACDVAFIGGSLLPYGCHNLIEPAQVGVPALFGPSVFNFQQAAADSLAAGAGRQVGDAAALVSTALSLMDDPAAGEAMRQGAVRFRDAHRGASERMLALIREAMSAGSEKLEHHHHHH”, “not soluble”. For “MSGSIARCETWPFPLHFSLLLLLLDFPACGNKGGLVIFIAHKFSMLRLSMHRASLPLWVGARLLSSTAVLRLEQSAEERTREEELRQRVQQKYRGMQIPEMTHHEYGHFSTTGISASAAHQAARSAGVEGYPGFGGGAFQNRGRVDWLLLLTGCTLVYLSFKILFRQFTRGVNGLELPLWTASIELQAKHILFAVQFQQSEQDQIKKDFEAVRQTNPFVDFFEWVRSRRPEFCCGRKYGADYVMHTLVSCLRSGDGTQLATLARTLQQSMTRKNGDSLQRVDDFVEQLQSAGYLFQGIRGVGSSGVHTPEHSPQPIYTPLREVSQCGVQESDLINALDVKNGEAHSSTPFREAK” the value was “soluble”; for “MTKSILLVGVGGQGTILASKLLTMGLMEAGYDVKMSEIHGMSQRGGSVSSQVRYGDCVHSPVIEIGGADILVSFEKMEALRWFNYLKPEGKALVNNHRIDSMTVLIGGAEYQESDIDAELSRLNAKVINAADKAEELGNSKIMNVILLGCLVKSMQLESIDWEKIISENVKPKFVELNIKAFHEGMEMVSK”, “not soluble”; for “MALLILFFLLGLSFSLEVFSEKLEIKENEIIAEGDAEAYYKNYYIKAKKIKLLRDKDEVYAYEDVYIKNLKTGFEIRGSFAYVNMKKNKGYFLNAKGKFREFNFEAKKIEQLDKERFKVYEATVTTCPLDDKELYLCIFRANITKERALIFHNRLKFFKVPIFYLPVYLIPLGGRKTGFLMPTIGSSTYSSFIYIQPFFWAISRDKDMTITADYRKDQMKGLSLEYRQAFDEESDLITQFSLYKEDKKKGDWWKGREMYRENRFRIFMKYRKKPFKIGVEELSDPYYYEDISFKQEEITKPYTKTYLIYEKETKNYLFYFQTVRYRDLTEEKNNAVNLLPEASFHLKPFYYKGFNFSLDSSFTNFYRNYDGSFMRISLEPTVGKYFELFKVSNYSSLTLINRYYPDSEEDKIVSTFRFRHSVPQYFSLSYGGFKFKNFLEGLYTFSPKDYEVQIFDYQDELNEENNFQFTLVGNLYKNRKLMDYFLNTGYNLLGSYTFPTDGKKIDKKLLPLYYNVSVYPVENVRFWQDAVYDFNLGVFARNVIGTDISWKNFSVGISNSVYKNSEKKVTTDQIALNLKYSGDKFFSGISLNYDRLVDKETYRNVYVGVKGKCWSLVLDYKRNYYRNRDEYVDQVFLRFNLFFKEEIEIPLRR”, “not soluble”.

Take “SLLGQKSQRYKAEEGLQAQGEAPGLMDVQIPTAEEQKAASSSSTLIMGTLEEVTDSGSPSPPQSPEGASSSLTVTDSTLWSQSDEGSSSNEEEGPSTSPDPAHLESLFREALDEKVAELVRFLLRKYQIKEPVTKAEMLESVIKNYKNHFPDIFSKASECMQVIFGIDVKEVDPAGHSYILVTCLGLSYDGLLGDDQSTPKTGLLIIVLGMILMEGSRAPEEAIWEALSVMGLYDGREHSVYWKLRKLLTQEWVQENYLEYRQAPGSDPVRYEFLWGPRALAETSYVKVLEHVVRVNARVRISYPSLHEEALGEEKGV”: the “soluble on expression in E. coli” value is given as “soluble”. For “MGSDKIHHHHHHMVPARHCHVAVFDQAIVALDIRRSRYFLYDAACARDFADHYLDFKPIDAPRALKPLIADRILVAESPAAARSRIADYRGWSFDAFDSGIWGSRVLGKRDAARFEWLPFWRIVRSAASLKMRGFHALAALDQLDARGAPARGDDASHTVERLLRASIWSPFRITCVQMSLALATHLRRQNVPAQLVIGVRPMPFVAHAWVEVDGRVCGDEPDLKKSYGEIYRTPRCDASAAPFGLAA” the value was “not soluble”. Regarding “MGSDKIHHHHHHKESGSLLNLLTDAEIERTEKIVISGNGLEEKDFAVLKAMLIRHALREVDIENTSTRAITERAFEGCSNLSAIKLPKYLVNTGWYAFEDCSGLMDIELPVSVETIANSFRGCSSLTSITLGRRVKSLDSQSFYLCSNLREVHCKGSIPPSCKQDSFKGLYETCTLYVPEGCKRDYTFADGWLNFGNIREEYVEPALSLRVNLEGGTFAWQLYPLYDGNGGIIVNHFYPGQDYLIDVEKGETIVFHIAEENTYFSNWKIDTILLNGEDITSQVTENDLLYLNIDRDSKLEIVMKDLSVTSNDVIENPQDIKISTLDNKVLIQNITTGERVNVYNVLGVLVHSVVVEAMDYEVQLPKGEIYLIQIGKKTVKLKL”, the “soluble on expression in E. coli” value is “not soluble”. Turning to “MGSDKIHHHHHHMIRANRHKRVIAVCGKGGVGKTAFTAMLTRSLLESQKAGDLLVIDADPAMGLPNTLGIQVEKTIGHVRDLIINTARAGIGEDRVDLSSRLDYLVLETLYESDDYAFLAMGRTDSQGCFCSVNDLLKKSIRILSERFDTIVIDGEAGLEQMNRQVMNMVDLLIILSDTSTRGLQTVEHITKMVTEDHVIDCTQLGVVFNRVINNELLLTQAAERIGIEVFGMVPQDQSIVHYDLIGQPLTELPADSLALSAIRDFVANHIVQLDCR”, the “soluble on expression in E. coli” value was “not soluble”.
